Test results published in US20140105889A1 (published 2014).
Numbering of substitutions follows the chain as printed. In names and notes the source's numbering stands. One block for each binder: values may come before it.

Tests used:
human FcγRIIa type R = target: T1, human FcγRIIa type R (human, UniProt P12318 36-217); experiment: SPR (Biacore), antibody captured on chip, FcγR as analyte; binding amount divided by that of IL6R-F652/IL6R-L, times 100
T1 construct: also called Fcγ RIIaR; FcγRIIa(R)
T1 chain: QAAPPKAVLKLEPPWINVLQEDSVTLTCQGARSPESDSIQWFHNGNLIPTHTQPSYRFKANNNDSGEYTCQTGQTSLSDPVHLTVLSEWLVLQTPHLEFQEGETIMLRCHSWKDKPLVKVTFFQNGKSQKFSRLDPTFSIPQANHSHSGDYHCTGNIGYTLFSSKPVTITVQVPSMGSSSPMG

human FcγRIIb [1] = target: T2, human FcγRIIb (human, UniProt P31994 43-217); experiment: as above
T2 construct: also called FcγIIB; FcγRIIb extracellular region
T2 sequence: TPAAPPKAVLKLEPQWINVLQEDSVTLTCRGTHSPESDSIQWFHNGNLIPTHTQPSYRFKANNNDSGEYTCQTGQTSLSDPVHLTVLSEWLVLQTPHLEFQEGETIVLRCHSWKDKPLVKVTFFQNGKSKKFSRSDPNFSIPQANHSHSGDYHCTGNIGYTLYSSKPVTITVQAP

human FcγRIIb [2] = target: T3, human FcγRIIb (human, UniProt P31994 43-217, limits assumed); experiment: ratio of this variant's SPR KD for FcγRIIaR to its KD for FcγRIIb
T3 construct: also called FcγIIB; hFcgRIIb
T3 sequence: T2 sequence
Source text: (§1) Furthermore, KD(IIaR)/KD(IIb) and KD(IIaH)/KD(IIb) in the table respectively represent the value obtained by dividing the KD value of each variant for FcγRIIaR by the KD value of each variant for FcγRIIb, and the value obtained by dividing the KD value of each variant for FcγRIIaH by the KD value of each variant for FcγRIIb.

human FcγRIIb [3] = target: T3, human FcγRIIb; experiment: ratio of this variant's SPR KD for FcγRIIaH to its KD for FcγRIIb
Source text: as §1

FcγRIIa type H = target: T4, FcγRIIa type H (human, UniProt P12318 36-217); experiment: SPR (Biacore), captured antibody, FcγR as analyte, method of Example 14
T4 construct: also called FcγRIIaH; FcγRIIa(H)
T4 sequence: T1 chain with R133H

FcγRIIb [4] = target: T5, FcγRIIb (human, UniProt P31994 43-217, limits assumed); experiment: ratio of SPR KD values of this variant (FcγRIIaR over FcγRIIb)
T5 construct: also called FcγIIB; FcgRIIb
T5 sequence: T2 sequence
Source text: as §1

FcγRIIb [5] = target: T5, FcγRIIb; experiment: ratio of SPR KD values of this variant (FcγRIIaH over FcγRIIb)
Source text: as §1

KD (IIaR)/KD (IIb) (human FcγRIIb [2]): 0.4
KD (IIaH)/KD (IIb) (human FcγRIIb [3]): 0.3
B4: IL6R-G1d/IL6R-L (antibody, human IgG1)
heavy: not shown
light: DIQMTQSPSSLSASVGDRVTITCRASQDISSYLNWYQQKPGKAPKLLIYYTSRLHSGVPSRFSGSGSGTDFTFTISSLQPEDIATYYCQQGNTLPYTFGQGTKVEIK
notes: Anti-human IL-6 receptor IgG1 with the G1d constant region (C-terminal Gly and Lys removed); template used for producing IL6R-B3; also called IgG1; copies: 2 + 2

KD (IIaR)/KD (IIb) (human FcγRIIb [2]): 9.9
KD (IIaH)/KD (IIb) (human FcγRIIb [3]): 49.9
B5: IL6R-BP145/IL6R-L (antibody, human IgG1)
heavy: QVQLQESGPGLVKPSETLSLTCAVSGHSISHDHAWSWVRQPPGEGLEWIGFISYSGITNYNPSLQGRVTISRDNSKNTLYLQMNSLRAEDTAVYYCARSLARTTAMDYWGEGTLVTVSSASTKGPSVFPLAPSSKSTSGGTAALGCLVKDYFPEPVTVSWNSGALTSGVHTFPAVLQSSGLYSLSSVVTVPSSSLGTQTYICNVNHKPSNTKVDKKVEPKSCDKTHTCPPCPAPEYLGDDSVFLFPPKPKDTLMISRTPEVTCVVVDVSHEDPEVKFNWYVDGVEVHNAKTKPREEQYNSTYRVVSVLTVLHQDWLNGKEYKCKVSNKALPAPIEKTISKAKGQPREPQVYTLPPSRDELTKNQVSLTCLVKGFYPSDIAVEWESNGQPENNYKTTPPVLDSDGSFFLYSKLTVDKSRWQQGNVFSCSVMHEALHNHYTQESLSLSP
light: B4 light
notes: copies: 2 + 2

KD (IIaR)/KD (IIb) (human FcγRIIb [2]): 17.5
KD (IIaH)/KD (IIb) (human FcγRIIb [3]): 55.5
B7: IL6R-BP130/IL6R-L (antibody, human IgG1)
heavy: B5 heavy with E235D, Y236L, D239G, V325M, A332K
light: B4 light
notes: copies: 2 + 2

Kd (FcγRIIa type H): 3000 nM
KD (IIaR)/KD (IIb) (FcγRIIb [4]): 19.1
KD (IIaH)/KD (IIb) (FcγRIIb [5]): 83.1
B8: IL6R-BP176/IL6R-L (antibody, human IgG1)
heavy: B5 heavy with E235D, Y236L, D239G, K328D, A332K
light: B4 light
notes: EU numbering

Kd (FcγRIIa type H): 1400 nM
KD (IIaR)/KD (IIb) (FcγRIIb [4]): 18.1
KD (IIaH)/KD (IIb) (FcγRIIb [5]): 272
B10: IL6R-BP178/IL6R-L (antibody, human IgG1)
heavy: B5 heavy with E235D, Y236L, P273G, A332K
light: B4 light
notes: EU numbering

Kd (FcγRIIa type H): 6200 nM
KD (IIaR)/KD (IIb) (FcγRIIb [4]): 13.6
KD (IIaH)/KD (IIb) (FcγRIIb [5]): 159
B12: IL6R-BP177/IL6R-L (antibody, human IgG1)
heavy: B5 heavy with E235D, P273G, K328D, A332K
light: B4 light
notes: EU numbering

Continued, binder first:

B1: IL6R-PD081/IL6R-L (antibody, human IgG1)
heavy: B5 heavy with Y236L, D239E, M254Y, N436Y, E441K
light: B4 light
notes: PD variant: P238D/G237E introduced into IL6R-F11 (EU numbering); copies: 2 + 2
relative binding activity for FcγRIIaR (human FcγRIIa type R): 117 % of the binding amount of IL6R-F652/IL6R-L
relative binding activity for FcγRIIb (human FcγRIIb [1]): 101 % of the binding amount of IL6R-F652/IL6R-L

B2: IL6R-PD042/IL6R-L (antibody, human IgG1)
heavy: B5 heavy with Y236W, D239G, M254Y, N436Y, E441K
light: B4 light
notes: PD variant: P238D/L234W introduced into IL6R-F11 (EU numbering); copies: 2 + 2
relative binding activity for FcγRIIaR (human FcγRIIa type R): 240 % of the binding amount of IL6R-F652/IL6R-L
relative binding activity for FcγRIIb (human FcγRIIb [1]): 106 % of the binding amount of IL6R-F652/IL6R-L

B3: IL6R-PD094/IL6R-L (antibody, human IgG1)
heavy: B5 heavy with Y236L, D239W, M254Y, N436Y, E441K
light: B4 light
notes: PD variant: P238D/G237W introduced into IL6R-F11 (EU numbering); copies: 2 + 2
relative binding activity for FcγRIIaR (human FcγRIIa type R): 593 % of the binding amount of IL6R-F652/IL6R-L
relative binding activity for FcγRIIb (human FcγRIIb [1]): 122 % of the binding amount of IL6R-F652/IL6R-L

B6: IL6R-PD082/IL6R-L (antibody, human IgG1)
heavy: B5 heavy with Y236L, D239F, M254Y, N436Y, E441K
light: B4 light
notes: PD variant: P238D/G237F introduced into IL6R-F11 (EU numbering); copies: 2 + 2
relative binding activity for FcγRIIaR (human FcγRIIa type R): 380 % of the binding amount of IL6R-F652/IL6R-L
relative binding activity for FcγRIIb (human FcγRIIb [1]): 108 % of the binding amount of IL6R-F652/IL6R-L

B9: IL6R-BP151/IL6R-L (antibody, human IgG1)
heavy: B5 heavy with E235D, K328A, A332R
light: B4 light
notes: EU numbering
KD (IIaR)/KD (IIb) (FcγRIIb [4]): 16.9
KD (IIaH)/KD (IIb) (FcγRIIb [5]): 118

B11: IL6R-PD095/IL6R-L (antibody, human IgG1)
heavy: B5 heavy with Y236L, D239Y, M254Y, N436Y, E441K
light: B4 light
notes: PD variant: P238D/G237Y introduced into IL6R-F11 (EU numbering); copies: 2 + 2
relative binding activity for FcγRIIaR (human FcγRIIa type R): 543 % of the binding amount of IL6R-F652/IL6R-L
relative binding activity for FcγRIIb (human FcγRIIb [1]): 124 % of the binding amount of IL6R-F652/IL6R-L

B13: IL6R-PD079/IL6R-L (antibody, human IgG1)
heavy: B5 heavy with Y236L, D239A, M254Y, N436Y, E441K
light: B4 light
notes: PD variant: P238D/G237A introduced into IL6R-F11 (EU numbering); copies: 2 + 2
relative binding activity for FcγRIIaR (human FcγRIIa type R): 138 % of the binding amount of IL6R-F652/IL6R-L
relative binding activity for FcγRIIb (human FcγRIIb [1]): 101 % of the binding amount of IL6R-F652/IL6R-L

B14: IL6R-PD086/IL6R-L (antibody, human IgG1)
heavy: B5 heavy with Y236L, D239L, M254Y, N436Y, E441K
light: B4 light
notes: PD variant: P238D/G237L introduced into IL6R-F11 (EU numbering); copies: 2 + 2
relative binding activity for FcγRIIaR (human FcγRIIa type R): 268 % of the binding amount of IL6R-F652/IL6R-L
relative binding activity for FcγRIIb (human FcγRIIb [1]): 112 % of the binding amount of IL6R-F652/IL6R-L
